According to the DeepSol protein solubility set:

test: soluble on expression in E. coli; label from the status in PepcDB or PDB records

Soluble on expression in E. coli, soluble:
MSEVVKKFMYLNRKAPYGTIYAWEALEVVLIGAAFDQDVCVLFLDDGVYQLTRGQDTKGIGMKNFSPTYRTLGDYEVRRIYVDRDSLEARGLTQDDLVEIAFEDMETEEEFDNIVEVIDSARVSELMNESDAVFSF
MSLANDDLQQRLDKGMYGTPLVNPEEQHKYMGTFRERCRLSMTVAEMKDAQNQKHLLEELAKHPEVTVLLNGEISSDLQSTYIKLLNQHGANFKIVNNFVENNPDSLGLLLAEKHAVDEPVIDVTEKYPQATETPKEEPTAKKSFWQKLFHSEGHHHHHH
GLIIGPEEDYDPGYFNNESDIIFQDLEKLKSHPAYLVVFLRYILSQADPGPLLFYLCSEVYQQTNPKDSRSLGKDIWNIFLEKNAPLRVKIPEMLQAEIDLRLRNNEDPRNVLCEAQEAVMLEIQEQINDYRSKRTLGLGSLYGENDLLGLDGDPLRERQMAEKQLAALGDILSKYEEDRSAPMDFAVNTFMSHAGIRLRESR
MSLSDVSSNYWAAPFIQQLSQRGVIAGFPDGSFRPEEAVTRAQFAAMVNKAFQKSQQRSPINFADVPSNYWASSAIQQAYTIGFLSGYPGNRFEPNQAIPRQQVLVSLANGLEYSPIGNTESTLQYFNDASNIASYARSPMAAATEKQIVVNYPNVKFLNPTATATRAQVAAFIYQALVSSNQASAINSEGHHHHHH
MHHKAKVIGMLKETIRSGDWKGEKHVPVIEYEREGDLVKVEVSVGKEIPHPNTPEHHIAWIELYFHPEGGQFPILVGRVEFTNHSDPLTEPRAVFFFKTSKKGKLYALSYCNIHGLWENEVQLE
MSLKITTEQVCEALDTWVCRPGMTQEQATILITEAFWALKERPNIDVQRVTFNDGEVDQRALGVNRVKIFERWKAIDTRDKRDKFTALIPAIMEAIRISDFRLYCEITDGKSITYMIAGLNKEYGDVVESGLLFADPVVVERETDELIEKAIAFKHAYRQQYQYYFADKQMSARGAYEYRCTTMGEGHHHHHH
MSLKRMLAEFEKIQAILMAFPHEFSDWAYCIKEARESFLNIIQTIAKHAKVLVCVHTNDTIGYEMLKNLPGVEIAKVDTNDTWARDFGAISIENHGVLECLDFGFNGWGLKYPSNLDNQVNFKLKSLGFLKHPLKTMPYVLEGGSIESDGAGSILTNTQCLLEKNRNPHLNQNGIETMLKKELGAKQVLWYSYGYLKGDDTDSHTDTLARFLDKDTIVYSACEDKNDEHYTALKKMQEELKTFKKLDKTPYKLIPLEIPKAIFDENQQRLPATYVNFLLCNDALIVPTYNDPKDALILETLKQHTPLEVIGVDCNTLIKQHGSLHCVTMQLYEGGSHHHHHH
MSLRQVIPIPSPPAKYLLPEVTVLDYGKKCVVIDLDETLVHSSFKPISNADFIVPVEIDGTIHQVYVLKRPHVDEFLQRMGQLFECVLFTASLAKYADPVADLLDRWGVFRARLFRESCVFHRGNYVKDLSRLGRELSKVIIVDNSPASYIFHPENAVPVQSWFDDMTDTELLDLIPFFEGLSREDDEGHHHHHH

Soluble on expression in E. coli, not soluble:
MYSDHTQTEAFRGELHGVYGLLFTDGGAPSSAQTSTDFIDASLGVNGYLAADGRGTLAGRVSGVLAGQPAVVGLRNAQAQYWATATGSGDYQINGVRPGRYRMTLYQHELEVAQRDVEVFAGATAQAALQAVSLPGAVKWLEHHHHHH
MSIIKKIVFKRFNSTLKKTALHDLHVSLGGTMVPYAGYSMPVLYKGQTHIESHNWTRTNAGLFDVSHMLQSKLSGPHSVKFLQRVTPTDFNALPVGSGTLSVLLNPQGGVVDDTIITKENDDNEFYIVTNAGCAERDTEFFHDELQNGSTLDCQWKIIEGRSLLALQGPKAKDVLEPLLSKTAPGKDLKELFFGQRHEFALKDGSLVQIARGGYTGEDGFEISIANEKAVEFAEQLLANPVMKPIGLAARDSLRLEAGMCLYGHELDESITPVEAALNWVISKSRRDLVDQKYWFNGYAKIMDQLNNKTYSKVRVGFKYLKKGPAARNGVKIFLPDAETEVGLVTSGSASPTLNNINIGQAYVQKGYHKKGTKLLVQVRNKFYPIELAKMPLVPTHYYKQ
MSVDTKIIGSFLQLTNYFAENYPAPCDLISSLTDLWFKQGGMIARMMSCDIQEFKSSDVFYEVLYRKIRVGNSLLADTLDPKMAAEGNLFEICKFYSLYLEHLRKDQSELLTIVLERLASQSDFNSTVILDMFTFFDKLYSEGNVGDWWDFLLGSEDASMVFKTPKKTNRPSNAFSTPTATAKRLPMYGSSTCRSPIAEVVDSPTMKYMRSDRELKTAKKKLVDMEHMVDELESENRNLTEKGRELKLIIDSLKSDVTNKRDTAKSSQQREQELSNILEEKEKESAQLLQQLEESRAALRDEQRHLEHQEAENGKIVEQLKTVSELNEKLTMQVKDLQDASENELASFRQKEKELIDELRMATNENVDLEELLKGVTNGKAGLQFENNCLVGKLEELSFVSDRNKQDADNARAQLEEEREKHRLATEKLHQENIDYMKTSDSRIEMILEESKTRKMMDESTIERLRLDLDNEKSYKKNLEDLLNDLNQRALNSEMANHLQKEGIQSVETYLQMAKKRIEHLELELSATNATIEFQSQQLDRAGNMLITEQEIRNQTSVQYKERTSALENQLSQKDAEIENLKRDLQQLVTKHESELKEQHEQLNVHHQSQQKLHSEAEKLRREHEALGKKNCFLGERCKIFVKDSRSGVMKRSTSSDSLAEFLSKGNDNETLEEMMRLIAQTPRKSVAFSFDLDEDETLKGTPIGFRTNLNETRESIASDEFFDRFPSTFPTRAAPRESVVSIGEPKNQFSPLGTSKDRVKTLTSRNEKVKPHLKSSYATEMGNVTSPSADEENVRKGKSKSIFAKLKGPRRDSFFFGKKKQAE
MSELLSSVSQQLLAPGGLELDSLPGILHELNGPGIDAADLYFQSQVSESWMLEDGIVKEGSFNLDQGVGVRAQSGEKTGFAYSNAITAEALKQAAVAARSISRAGQNGSVQAFKAVVPARLYAGENPLDVLSRAEKVELLKQIDAATRALDPRIQQVTVSMAGVWEQILVAASDGSLAADIRPLVRFNVSVIVEQNGRRERGGHGGGGRTDYRYFLQEDRAMGYAREALRQALVNLEAIPAPAGTLPVVMGAGWSGVLLHEAVGHGLEGDFNRKGSSAYSGRVGEKVASSLCTIVDDGTLAGRRGSLSVDDEGTPSNCNVLIENGVLKGYMQDKLNARLMGVARTGNGRRESYAHLPMPRMTNTYMLAGESDPQEIIASVEKGIYCANLGGGQVDITSGKFVFSTSEAYLIENGRITTPVKGATLIGNGPEAMSRVSMVGNDLALDSGVGTCGKDGQSVPVGVGQPTLKIDAITVGGTGA
MHFHVNNVVTSSQIDDVLVKICTGPLFDNGTPFITYGCVLHLSSERGIIRTFDEKLCLFELKDLNMDGVVDMTDVLPLGCTLKFFATRQNHHTFTASNVSPICEPAAQLIFLNSTEMNVITPDFTSTGSSNHYSVEKERFAYVRILELFQQQAVLSLPLSSMISELGKFGEDDVSQYIGISDEERGMFIKRRTHLFTVGWNDLVTLQSPDFYQAIVLILSYILCNGGVTSTENVFEFYQTDNVPLSVRQRTGSDMNSFREIIDFHSWAFTLSSHGTYVSAKRNLPHFDYMSFFEGIVCTATPQRHQKSKLLKHPPGLQIPLLNTRAQALGQASMHQQQQEHISNPYQGYQPYLHREDMTNGMKKPTGTLIDGANQKHCFGMQVSSPDRNAFEKPSVFGHTWGDVIAFNKNSANFSRGMQSKRRYNLSSMFRNLKYSGFRSSIDSTSSSDDSQSLDNCSTSGVNNMLIGCGPQMY
MESSDIASRIWLIAGPTASGKSAYALDLAERIDGEIVNADSMQIYAGLRVLTAGPSQEETARAPHHLFQIVDPALGWSVGRWLEAATQALAEIQARGKPAIVVGGTGLYFRALTHGLADVPPVPETQREISSLLYAARGETEFREILKPLDPEAEARIESGDRQRLVRAHAVAITTGKSLTAWQTDTKPALAPGSWKGLVLDPPRAELYARCDARLAVMVEQGALDEVRALETRGLDPALPALKAVGYREFAAHLRGETSLDQALDAARQETRRYAKRQLTWFRNQTPDWERIVPLEHHHHHH
MGSDKIHHHHHHMSNENIVLARNTERAPKHHLAAQTVAFSHYNHLSAQLPIEPTSGQLVEGGIRAQATQCLKNIQAVVESINHVMSDIVRMTIFVKDMRDAAAVEEVYAAFFTHYYPAKTVVAVADLPLGASVQMEALVSNGEGTIPNAPQAGDLIKLTNQTVQAPIDALASQTVAFSHYNNLSAQLPIDPQTGRVVAGCVKTQTKQCLKNIKAILTSIDVPFDDIVKINIYLKDLSKLEAVNQVHAAFFPDSGIARTVNYMPARTVIAVADLPMGAAVQVEAVVSHGDGTPPQAIEDRHGLIIEANNTEHAPKCPFSTQTVAFSHYNHLSAQLPLDPKTNALVAGGIKEQTTQCLENIKAIIESVDHSLADLVKVNIFVKEIEELAAVDDVYQTYFPEGTPARRVIGVTDLPKGAQIQIEAIAGNAEGTPPIG
MLLLIDNYDSFTYNLYQYFCELGTEVMVKRNDELQLTDIEQLAPSHVVISPGPCTPNEAGISLAVIRHFADKLPILGVCLGHQALGQAFGARVVRARQVMHGKTSAICHSGQGVFRGLNQPLTVTRYHSLVIATDSLPGRFELTAWTERGGEMDEIMGIRHRTLPLEGVQFHPESILSEQGHQLLDNFLKN
MSSRKRGITPSRDQVRRKKLSIEETDSIEVVCRLCPYTGSTPSLIAIDEGSIQTVLPPAQFRRENAPQVEKVFRFGRVFSENDGQATVFERTSVDLILNLLKGQNSLLFTYGVTGSGKTYTMTGKPTETGTGLLPRTLDVIFNSINNRVEKCIFYPSALNTFEIRATLDAHLKRHQMAADRLSTSREITDRYCEAIKLSGYNDDMVCSVFVTYVEIYNNYCYDLLEDARNGVLTKREIRHDRQQQMYVDGAKDVEVSSSEEALEVFCLGEERRRVSSTLLNKDSSRSHSVFTIKLVMAPRAYETKSVYPTMDSSQIIVSQLCLVDLAGSERAKRTQNVGERLAEANSINQSLMTLRQCIEVLRRNQKSSSQNLEQVPYRQSKLTHLFKNYLEGNGKIRMVICVNPKPDDYDENMSALAFAEESQTIEVKKQVERMPSERIPHSFFTQWNSELDGSVRMEDDGSREIPCPPTFCLTDCNDKDTVDSMYKYARKLSSLQNSSEEGPSSTLLTMIRQYMMEADYQRVEIARLKDSLNDKDEEIKKLRGFCSRYKRENASMKERIASCEQGEQENALVMEKLMEQKMEDRKIIQSQKKAMRNVRGIIDNPSPSVASLRSRFDQENVAHPTAPIQTPPPPYQTPGRAPVFKKRLEATTSTTVMSGSSSGGSGQQGYVNPKYQRRSKSASRLLDHQPLHRVPTGTVLQSRTPANAIRTTKPEMHQLNKSGEYRLTHQEVDDEGNISTNIVKGNVIPTVSGGTAVFFNDIERLTHESPSTRK
MYVQLSQRLKDVATYVPKGAKLLDVGSDHAYLPIYLLEKGLITSAIAGEVVKGPYESALANVSASGFNDKIDVRLANGLAAFEPYDAVTTITICGMGGRLIADILDAGKDKLKDVDRLILQPNNREDDLRIWLMENGFTIVAEAIMTEN
NKNFSWNTDWTYSLNREKIKALNSGVTRDEGNLWFVGSPTQVFYDYKKIGIWQLGEEVQAKAFGGFKPGDIKVADMSPKGSEGEGVFSTDDRVIFSRVPKYTFGITNNIIYKNFDLMFFIYGRIGQYVKDAYTQLYKPSALENSAPVNYWTPENPSNEYPRPNSGYSTNSYLLQSSLAFRKASFVKIRDITLGYTLPKEWTSKMMVQKLRIYCSLNNFITFTDFPNYDPESNGSMDFPLAKQVLFGINLSL
MGSDKIHHHHHHMAPEDWLRAQMQGEIVALVHSHPGGLPWLSEADRRLQVQSDLPWWLVCRGTIHKFRCVPHLTGRRFEHGVTDCYTLFRDAYHLAGIEMPDFHRGDDWWRHGQNLYLDNLEATGLYQVPLSSAQPGDVLLCCFGSSVPNHAAIYCGDGELLHHIPEQLSKRERYTDKWQRRTHSLWRHREWHASAFTGICNDLAAASTFV
